Measured values: publication PMC5505701, “Somatostatin binds to the human amyloid β peptide and favors the formation of distinct oligomers” (eLife, 2017)

Tests used:
[1] = tested on: oligomeric versus monomeric Aβ1-42 (Aβ1-42-biotin bait); test: Affinity capture interactome Experiment III (oAβ1-42-biotin vs mAβ1-42-biotin); conditions: for Experiment III oAβ1-42-B/mAβ1-42-B Ratio: oligomeric versus monomeric bait, human frontal lobe digitonin extract, TMT, pH 8.0, 4°C overnight
[2] = tested on: oligomeric Aβ1-42 (oAβ1-42-biotin bait); test: Affinity capture interactome Experiment II (C-terminally tethered oAβ1-42-biotin vs biotin); conditions: for Experiment II oAβ1-42-B/B Ratio: enrichment relative to biotin-only negative control, human frontal lobe digitonin extract, TMT, pH 8.0, 4°C overnight

B1: Cofilin-2: human brain protein (protein, UniProt Q9Y281 2-166, looked up)
Cofilin-2: ASGVTVNDEVIKVFNDMKVRKSSTQEEIKKRKKAVLFCLSDDKRQIIVEEAKQILVGDIGDTVEDPYTSFVKLLPLNDCRYALYDATYETKESKKEDLVFIFWAPESAPLKSKMIYASSKDAIKKKFTGIKHEWQVNGLDDIKDRSTLGEKLGGNVVVSLEGKPL
Q: How did the “Experiment III oAβ1-42-B/mAβ1-42-B Ratio” value [1] turn out when B1 was run?
A: The value was 6.93.

Q: What about the “Experiment II oAβ1-42-B/B Ratio” value [2] of the same molecule?
A: Its value is 1.81.

B2: Peroxiredoxin-5, mitochondrial: human brain protein (protein, UniProt P30044 53-214, looked up)
Peroxiredoxin-5, mitochondrial: MAPIKVGDAIPAVEVFEGEPGNKVNLAELFKGKKGVLFGVPGAFTPGCSKTHLPGFVEQAEALKAKGVQVVACLSVNDAFVTGEWGRAHKAEGKVRLLADPTGAFGKETDLLLDDSLVSIFGNRRLKRFSMVVQDGIVKALNVEPDGTGLTCSLAPNIISQL
Q: What does the source list for B2?
A: Experiment III oAβ1-42-B/mAβ1-42-B Ratio [1]: 5.90; Experiment II oAβ1-42-B/B Ratio [2]: 2.15

B3: 14-3-3 protein epsilon: human brain protein (protein, UniProt P62258 1-255, looked up)
14-3-3 protein epsilon: MDDREDLVYQAKLAEQAERYDEMVESMKKVAGMDVELTVEERNLLSVAYKNVIGARRASWRIISSIEQKEENKGGEDKLKMIREYRQMVETELKLICCDILDVLDKHLIPAANTGESKVFYYKMKGDYHRYLAEFATGNDRKEAAENSLVAYKAASDIAMTELPPTHPIRLGLALNFSVFYYEILNSPDRACRLAKAAFDDAIAELDTLSEESYKDSTLIMQLLRDNLTLWTSDMQGDGEEQNKEALQDVEDENQ
Q: What does the source list for B3?
A: 128/131 ([1]; Experiment III, oAbeta 1-42 (TMT 128) versus mAbeta 1-42 (TMT 131), replicate channel 128): 1.113; 130/131 ([1]; Experiment III, oAbeta 1-42 (TMT 130) versus mAbeta 1-42 (TMT 131), replicate channel 130): 0.949; 126/131 ([2]; Experiment II, oAbeta 1-42-biotin (TMT 126) versus biotin (TMT 131), replicate channel 126): 1.157; 128/131 ([2]; Experiment II, oAbeta 1-42-biotin (TMT 128) versus biotin (TMT 131), replicate channel 128): 1.411; 130/131 ([2]; Experiment II, oAbeta 1-42-biotin (TMT 130) versus biotin (TMT 131), replicate channel 130): 1.195
